The subject of the test is naïve high-threshold (HT) trigeminovascular neurons. Nature of the test: Single-unit recording of naïve central trigeminovascular neurons, HT neurons. Conditions: 30 mg/kg IV. It is filed as in vivo, rat. An excerpt:
Experiments were approved by the Beth Israel Deaconess Medical Center and Harvard Medical School standing committees on animal care, and in accordance with the U.S. National Institutes of Health Guide for the Care and Use of Laboratory Animals. Male and female Sprague-Dawley rats (250-350 g) were anesthetized with urethane (0.9-1.2 g/kg i.p.). They were fitted with an intra-tracheal tube to allow artificial ventilation (0.1 L/min of (O2), and an intra-femoral-vein cannula for later infusion of drugs. Rats were placed in a stereotaxic apparatus, and core temperature was kept at 37° C. using a heating blanket. End-tidal […] was continuously monitored and kept within physiological range (3.5-4.5 pCO2). Once stabilized, rats were paralyzed with rocuronium bromide (10 mg/ml, 1 ml/hr continuous intravenous infusion) and ventilated. For stimulation of the cranial dura later in the experiment, a 5×5-mm opening was carefully carved in the parietal and occipital bones in front and behind the lambda suture, directly above the left transverse sinus. The exposed dura was kept moist using a modified synthetic interstitial fluid (135 mM NaCl, 5 mM KCl, 1 mM MgCl2, 5 mM CaCl2, 10 mM glucose and 10 mM Hepes, pH 7.2). For single-unit recording in the spinal trigeminal nucleus, a segment of the spinal cord between the obex and C2 was uncovered from overlying tissues, stripped of the dura mater, and kept moist with mineral oil.
To record neuronal activity, a tungsten microelectrode (impedance 3-4 MΩ) was lowered repeatedly into the spinal trigeminal nucleus (STN) in search of central trigeminovascular neurons receiving convergent input from the dura and facial skin. Trigeminovascular neurons were first identified based on their responses to electrical stimulation of the dura. […] Dural receptive fields were mapped by indenting the dura (with the 4.19 g VFH monofilament) at points separated by 1 mm mediolaterally and rostrocaudally. Points at which dural indentation produced a response in ≥50% of the trials were considered inside the neurons receptive field. Cutaneous receptive fields were mapped by applying innocuous and noxious mechanical stimulation to all facial skin areas and the cornea. An area was considered outside the receptive field if no stimulus produced a response in ≥50% of the trials. Responses to mechanical stimulation of the skin were determined by applying brief (10 s) innocuous and noxious stimuli to the most sensitive portion of the cutaneous receptive field. Innocuous stimuli consisted of slowly passing a soft bristled brush across the cutaneous receptive field (one 5-s brush stroke from caudal to rostral and one 5-s brush stroke from rostral to caudal) and pressure applied with a loose arterial clip. Noxious stimuli consisted of pinch with a strong arterial clip (Palecek et al., 1992, J. Neurophysiol. 67:1562-1573; Dado et al., 1994, J. Neurophysiol. 71:981-1002; Burstein et al., 1998, J. Neurophysiol. 79:964-982). More intense or prolonged stimuli were not used to avoid inducing prolonged changes in spontaneous neuronal discharge or response properties. […] Real-time waveform discriminator was used to create and store a template for the action potential evoked in the neuron under study by electrical pulses on the dura; spikes of activity matching the template waveform were acquired and analyzed online and offline using Spike 2 software (CED, Cambridge, UK). […]

B1: fremanezumab (antibody)
heavy: EVQLVESGGGLVQPGGSLRLSCAASGFTFSNYWISWVRQAPGKGLEWVAEIRSESDASATHYAEAVKGRFTISRDNAKNSLYLQMNSLRAEDTAVYYCLAYFDYGLAIQNYWGQGTLVTVSSASTKGPSVFPLAPCSRSTSESTAALGCLVKDYFPEPVTVSWNSGALTSGVHTFPAVLQSSGLYSLSSVVTVPSSNFGTQTYTCNVDHKPSNTKVDKTVERKCCVECPPCPAPPVAGPSVFLFPPKPKDTLMISRTPEVTCVVVDVSHEDPEVQFNWYVDGVEVHNAKTKPREEQFNSTFRVVSVLTVVHQDWLNGKEYKCKVSNKGLPSSIEKTISKTKGQPREPQVYTLPPSREEMTKNQVSLTCLVKGFYPSDIAVEWESNGQPENNYKTTPPMLDSDGSFFLYSKLTVDKSRWQQGNVFSCSVMHEALHNHYTQKSLSLSPGK
light: EIVLTQSPATLSLSPGERATLSCKASKRVTTYVSWYQQKPGQAPRLLIYGASNRYLGIPARFSGSGSGTDFTLTISSLEPEDFAVYYCSQSYNYPYTFGQGTKLEIKRTVAAPSVFIFPPSDEQLKSGTASVVCLLNNFYPREAKVQWKVDNALQSGNSQESVTEQDSKDSTYSLSSTLTLSKADYEKHKVYACEVTHQGLSSPVTKSFNRGEC
notes: humanized anti-CGRP antagonist antibody, vectors ATCC PTA-6867 and PTA-6866
In the case of B1, for the setting “female rats”, the “spontaneous activity of HT neurons” value is “did not reduce the spontaneous activity”. In addition, the “decrease of firing of HT neurons in response to mechanical stimulation of the dura” value worked out at 61% (female rats, p=0.017) and 75% (male rats, p=0.047). In addition, the “responses of HT neurons to innocuous (brush, pressure) or noxious (pinch) mechanical stimulation of the skin or the cornea” value (male or female rats) is reported as “did not alter the responses”. For the same molecule, the “decrease of spontaneous neuronal firing of HT neurons” value (male rats, within 3-4 hrs, p=0.040) came out at 90%.

Source of the values: patent US10766952B2, “Methods for reducing migraine frequency in a subject in need thereof” (Beth Israel Deaconess Medical Center, Inc., priority 2017, dated 2020).
